Test results published in paper PMC10630626 (2023).
One block for each binder: values may come before it.

Legend:
Experiment in all cases: SPR
[1] = target: Palivizumab single-chain variable fragment, light-heavy order, fused to IgG1 Fc (P^scFvLHFc)
[2] = target: Palivizumab single-chain variable fragment, heavy-light order, fused to IgG1 Fc (P^scFvHLFc)
Palivizumab = target: Palivizumab
Chain of Palivizumab (VH, as listed by the source, chain 1 of 2): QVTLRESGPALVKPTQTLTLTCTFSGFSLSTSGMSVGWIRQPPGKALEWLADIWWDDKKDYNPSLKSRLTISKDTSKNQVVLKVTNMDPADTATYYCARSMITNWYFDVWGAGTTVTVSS
Chain of Palivizumab (VL, as listed by the source, chain 2 of 2): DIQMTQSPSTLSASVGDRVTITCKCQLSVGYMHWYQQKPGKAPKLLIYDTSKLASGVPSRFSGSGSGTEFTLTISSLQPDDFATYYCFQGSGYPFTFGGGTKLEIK

Chain of Palivizumab single-chain variable fragment, heavy-light order, fused to IgG1 Fc (P^scFvHLFc) (chain, as listed by the source, chain 1 of 2): as the sequence (VH, as listed by the source, chain 1 of 2) above
Chain of Palivizumab single-chain variable fragment, heavy-light order, fused to IgG1 Fc (P^scFvHLFc) (chain, as listed by the source, chain 2 of 2): as the sequence (VL, as listed by the source, chain 2 of 2) above
Chain of Palivizumab single-chain variable fragment, light-heavy order, fused to IgG1 Fc (P^scFvLHFc) (chain, as listed by the source, chain 1 of 2): as the sequence (VH, as listed by the source, chain 1 of 2) above
Chain of Palivizumab single-chain variable fragment, light-heavy order, fused to IgG1 Fc (P^scFvLHFc) (chain, as listed by the source, chain 2 of 2): as the sequence (VL, as listed by the source, chain 2 of 2) above

B1: anti-idiotypic nanobody for Palivizumab 1 (AIP1^VHH), soluble (VHH)
VHH: DVQLQESGGGLVQAGGSLRLSCVASGLTFRYDMGWFRQAPGKEREFVAQITWRGGSATYYADSVKGRFTIARDIAKNAVYLQMNSLKPEDTAVYYCAAAYGSAGYRPDEYDSWGQGTQVTVSS
koff [1]: 4.2e-05 s⁻¹
koff [2]: 6.56e-05 s⁻¹

B2: anti-idiotypic nanobody for Palivizumab 2 (AIP2^VHH), soluble (VHH)
VHH: DVQLQESGGGLVQAGGSLRLSCAASESLFRLNAMGWYRQAPGKQRELVAGITTSGDAVYADSVKGRFTISRDSAKNTVYLQTNNLKPEDTAVYYCNVRPRAGTWENARIGVWGQGTQVTVSS
koff (Palivizumab): 0.000733 s⁻¹

More lines, now with the values ahead:

koff (Palivizumab): 0.00308 s⁻¹
B3: anti-idiotypic nanobody for Palivizumab 3 (AIP3^VHH), soluble (VHH)
VHH: DVQLQESGGGLVQPGGSLRLSCVASGRTWSIYAMGWFRQAPGKEREFVTAISISRSESVTHYAESVTGRFTISRDNAKNTLHLQMNSLKPEDTAVYFCAADRRSIDPHHTIDYWGQGTQVTVSS

koff (Palivizumab): 0.0148 s⁻¹
B4: anti-idiotypic nanobody for Palivizumab 4 (AIP4^VHH), soluble (VHH)
VHH: DVQLQESGGGLVQAGGSLRLSCVASGRAFSRYDMGWFRQAPGKEREFVAQISWRGGSATSYADTVKGRFTIARDNAKNTVYLQMNSLKPEDTAVYYCNARTPTLSSWGQGTQVTVSS
